Measurements reported in patent US20200199241A1 (Chugai, published 2020).
Numbering of substitutions follows the chain as printed. In names and notes the source's numbering stands.

B1: GpH7-B3 S324P/GpL16-k0 (antibody, human IgG1)
heavy: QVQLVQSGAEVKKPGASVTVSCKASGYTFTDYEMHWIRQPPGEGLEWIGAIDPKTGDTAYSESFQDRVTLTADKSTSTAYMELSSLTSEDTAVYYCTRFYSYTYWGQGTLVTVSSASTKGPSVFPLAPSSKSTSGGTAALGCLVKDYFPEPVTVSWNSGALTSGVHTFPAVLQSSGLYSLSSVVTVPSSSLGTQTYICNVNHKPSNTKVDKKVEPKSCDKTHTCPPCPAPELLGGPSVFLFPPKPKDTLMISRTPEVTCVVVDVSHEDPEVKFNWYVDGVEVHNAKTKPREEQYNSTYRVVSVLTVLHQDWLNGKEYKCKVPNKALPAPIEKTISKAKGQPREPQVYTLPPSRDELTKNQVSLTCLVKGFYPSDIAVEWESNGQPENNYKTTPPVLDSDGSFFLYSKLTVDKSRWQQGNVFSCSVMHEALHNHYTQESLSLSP
light: DIVMTQSPLSLPVTPGEPASISCQASESLVHSNRNTYLHWYLQKPGQSPQLLIYKVSNRFSGVPDRFSGSGSGTDFTLKISRVEAEDVGVYYCSQNTHVPPTFGQGTKVEIE
notes: B3 variant; copies: 2 + 2
B2: GpH7-B3 Y300P/GpL16-k0 (antibody, human IgG1)
heavy: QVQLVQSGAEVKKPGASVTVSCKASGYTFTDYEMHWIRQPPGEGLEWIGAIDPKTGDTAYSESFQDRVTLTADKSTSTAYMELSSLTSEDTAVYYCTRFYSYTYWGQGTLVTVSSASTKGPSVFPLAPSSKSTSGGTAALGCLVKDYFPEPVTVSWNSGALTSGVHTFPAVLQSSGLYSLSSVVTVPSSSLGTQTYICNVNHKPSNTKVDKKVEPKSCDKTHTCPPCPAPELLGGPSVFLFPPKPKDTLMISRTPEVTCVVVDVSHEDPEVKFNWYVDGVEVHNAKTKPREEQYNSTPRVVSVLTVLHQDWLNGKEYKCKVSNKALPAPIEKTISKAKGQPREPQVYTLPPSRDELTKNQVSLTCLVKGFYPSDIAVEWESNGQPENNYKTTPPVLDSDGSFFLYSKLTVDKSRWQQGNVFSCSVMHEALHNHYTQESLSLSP
light: B1 light
notes: B3 variant; copies: 2 + 2
B3: GpH7-B3 Y296G/GpL16-k0 (antibody, human IgG1)
heavy: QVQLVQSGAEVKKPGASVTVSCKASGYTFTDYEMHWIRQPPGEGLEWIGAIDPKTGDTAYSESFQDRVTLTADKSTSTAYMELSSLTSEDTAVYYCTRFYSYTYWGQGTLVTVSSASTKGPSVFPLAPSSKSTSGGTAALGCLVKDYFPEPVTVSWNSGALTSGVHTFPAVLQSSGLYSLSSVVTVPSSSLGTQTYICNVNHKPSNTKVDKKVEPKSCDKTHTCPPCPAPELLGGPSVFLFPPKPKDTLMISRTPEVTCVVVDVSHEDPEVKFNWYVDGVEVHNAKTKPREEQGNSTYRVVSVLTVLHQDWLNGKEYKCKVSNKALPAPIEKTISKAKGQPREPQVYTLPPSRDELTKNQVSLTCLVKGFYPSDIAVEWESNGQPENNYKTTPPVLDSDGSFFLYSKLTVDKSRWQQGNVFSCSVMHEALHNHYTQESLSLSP
light: B1 light
notes: B3 variant; copies: 2 + 2
B4: GpH7-B3 Y296P/GpL16-k0 (antibody, human IgG1)
heavy: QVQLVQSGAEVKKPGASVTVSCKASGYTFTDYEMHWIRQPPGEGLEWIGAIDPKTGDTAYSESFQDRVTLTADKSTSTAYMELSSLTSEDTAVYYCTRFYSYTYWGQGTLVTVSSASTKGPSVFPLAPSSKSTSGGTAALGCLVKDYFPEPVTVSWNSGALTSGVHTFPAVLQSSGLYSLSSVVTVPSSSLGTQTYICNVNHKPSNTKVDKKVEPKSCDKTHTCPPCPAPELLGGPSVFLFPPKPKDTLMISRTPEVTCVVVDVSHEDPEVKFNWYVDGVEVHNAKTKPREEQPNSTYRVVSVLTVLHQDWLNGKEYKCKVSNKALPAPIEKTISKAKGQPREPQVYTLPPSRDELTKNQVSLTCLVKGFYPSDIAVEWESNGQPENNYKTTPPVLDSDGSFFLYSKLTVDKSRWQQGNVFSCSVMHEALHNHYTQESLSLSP
light: B1 light
notes: B3 variant; copies: 2 + 2
B5: GpH7-B3 Y296K/GpL16-k0 (antibody, human IgG1)
heavy: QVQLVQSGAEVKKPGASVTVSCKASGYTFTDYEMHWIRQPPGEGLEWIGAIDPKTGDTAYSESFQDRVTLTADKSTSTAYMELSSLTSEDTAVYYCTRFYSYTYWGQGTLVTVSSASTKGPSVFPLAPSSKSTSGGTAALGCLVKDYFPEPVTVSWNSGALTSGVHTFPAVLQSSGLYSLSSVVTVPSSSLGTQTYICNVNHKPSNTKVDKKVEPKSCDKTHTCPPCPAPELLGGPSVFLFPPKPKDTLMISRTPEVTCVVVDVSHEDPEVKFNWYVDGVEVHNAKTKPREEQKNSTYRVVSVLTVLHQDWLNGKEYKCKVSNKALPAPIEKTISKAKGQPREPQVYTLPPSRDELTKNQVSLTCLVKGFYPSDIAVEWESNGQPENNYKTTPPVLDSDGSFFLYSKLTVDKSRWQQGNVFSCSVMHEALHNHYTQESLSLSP
light: B1 light
notes: B3 variant; copies: 2 + 2
B6: GpH7-B3 Y300R/GpL16-k0 (antibody, human IgG1)
heavy: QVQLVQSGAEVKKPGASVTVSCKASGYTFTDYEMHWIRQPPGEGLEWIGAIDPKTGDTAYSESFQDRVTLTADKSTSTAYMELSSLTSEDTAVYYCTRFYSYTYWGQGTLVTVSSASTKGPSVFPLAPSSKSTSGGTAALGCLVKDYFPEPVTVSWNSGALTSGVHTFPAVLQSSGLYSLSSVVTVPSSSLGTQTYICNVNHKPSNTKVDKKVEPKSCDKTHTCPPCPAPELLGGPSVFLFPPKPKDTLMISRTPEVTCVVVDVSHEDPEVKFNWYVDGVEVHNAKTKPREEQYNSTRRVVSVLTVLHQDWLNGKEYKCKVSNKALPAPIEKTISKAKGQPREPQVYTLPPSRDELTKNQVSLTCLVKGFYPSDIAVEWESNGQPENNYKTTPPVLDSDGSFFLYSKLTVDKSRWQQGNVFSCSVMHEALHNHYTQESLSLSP
light: B1 light
notes: B3 variant; copies: 2 + 2
B7: GpH7-B3 Y296R/GpL16-k0 (antibody, human IgG1)
heavy: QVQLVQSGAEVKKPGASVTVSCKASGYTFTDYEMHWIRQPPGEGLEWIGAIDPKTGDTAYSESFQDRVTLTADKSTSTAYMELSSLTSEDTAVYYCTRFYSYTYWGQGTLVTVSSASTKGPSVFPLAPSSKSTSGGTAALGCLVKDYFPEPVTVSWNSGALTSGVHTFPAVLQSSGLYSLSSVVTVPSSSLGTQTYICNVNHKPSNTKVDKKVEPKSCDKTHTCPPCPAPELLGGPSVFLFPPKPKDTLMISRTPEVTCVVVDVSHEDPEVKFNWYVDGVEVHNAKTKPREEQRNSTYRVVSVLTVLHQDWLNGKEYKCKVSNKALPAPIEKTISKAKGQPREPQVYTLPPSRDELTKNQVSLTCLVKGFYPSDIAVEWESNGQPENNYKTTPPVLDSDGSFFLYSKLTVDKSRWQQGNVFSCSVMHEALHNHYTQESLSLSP
light: B1 light
notes: B3 variant; copies: 2 + 2
B8: GpH7-B3 Y300K/GpL16-k0 (antibody, human IgG1)
heavy: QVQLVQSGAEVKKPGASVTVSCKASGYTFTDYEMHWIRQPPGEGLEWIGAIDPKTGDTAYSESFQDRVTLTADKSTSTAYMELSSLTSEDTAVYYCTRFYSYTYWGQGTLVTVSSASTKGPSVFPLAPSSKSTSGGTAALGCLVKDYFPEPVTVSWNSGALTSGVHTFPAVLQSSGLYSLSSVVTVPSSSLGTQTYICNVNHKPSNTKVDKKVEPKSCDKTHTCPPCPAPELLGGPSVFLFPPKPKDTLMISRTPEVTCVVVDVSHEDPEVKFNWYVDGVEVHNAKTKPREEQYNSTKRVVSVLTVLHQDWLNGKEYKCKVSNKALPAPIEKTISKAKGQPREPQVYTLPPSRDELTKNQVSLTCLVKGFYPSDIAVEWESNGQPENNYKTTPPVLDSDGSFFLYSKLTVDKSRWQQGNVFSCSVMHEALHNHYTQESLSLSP
light: B1 light
notes: B3 variant; copies: 2 + 2
B9: IL6R-BP181/IL6R-L (antibody, human IgG1)
heavy: QVQLQESGPGLVKPSETLSLTCAVSGHSISHDHAWSWVRQPPGEGLEWIGFISYSGITNYNPSLQGRVTISRDNSKNTLYLQMNSLRAEDTAVYYCARSLARTTAMDYWGEGTLVTVSSASTKGPSVFPLAPSSKSTSGGTAALGCLVKDYFPEPVTVSWNSGALTSGVHTFPAVLQSSGLYSLSSVVTVPSSSLGTQTYICNVNHKPSNTKVDKKVEPKSCDKTHTCPPCPAPDLLGGDSVFLFPPKPKDTLMISRTPEVTCVVVDVSHEDGEVKFNWYVDGVEVHNAKTKPREEQYNSTYRVVSVLTVLHQDWLNGKEYKCKVSNAALPKPIEKTISKAKGQPREPQVYTLPPSRDELTKNQVSLTCLVKGFYPSDIAVEWESNGQPENNYKTTPPVLDSDGSFFLYSKLTVDKSRWQQGNVFSCSVMHEALHNHYTQESLSLSP
light: DIQMTQSPSSLSASVGDRVTITCRASQDISSYLNWYQQKPGKAPKLLIYYTSRLHSGVPSRFSGSGSGTDFTFTISSLQPEDIATYYCQQGNTLPYTFGQGTKVEIK
notes: IgG1; Fc variant of IL6R-B3; copies: 2 + 2
B10: IL6R-BP190/IL6R-L (antibody, human IgG1)
heavy: B9 heavy with D235E, G239D, H270D, A328K
light: B9 light
notes: as for B9
B11: IL6R-BP195/IL6R-L (antibody, human IgG1)
heavy: B9 heavy with L236Y, G239D, H270D, Y298D
light: B9 light
notes: as for B9
B12: IL6R-BP191/IL6R-L (antibody, human IgG1)
heavy: B9 heavy with H270D
light: B9 light
notes: as for B9
B13: IL6R-BP131/IL6R-L (antibody, human IgG1)
heavy: B9 heavy with G239D, G273P, A328K
light: B9 light
notes: as for B9
B14: IL6R-BP151/IL6R-L (antibody, human IgG1)
heavy: B9 heavy with L236Y, G239D, G273P, K332R
light: B9 light
notes: as for B9
B15: IL6R-BP178/IL6R-L (antibody, human IgG1)
heavy: B9 heavy with G239D, A328K
light: B9 light
notes: as for B9
B16: IL6R-BP152/IL6R-L (antibody, human IgG1)
heavy: B9 heavy with L236Y, G239D, G273P, Y298D, K332R
light: B9 light
notes: as for B9
B17: IL6R-BP205/IL6R-L (antibody, human IgG1)
heavy: B9 heavy with Y298D, A328K, K332R
light: B9 light
notes: as for B9
B18: IL6R-BP188/IL6R-L (antibody, human IgG1)
heavy: B9 heavy with G239D, H270D, A328K
light: B9 light
notes: as for B9
B19: IL6R-BP201/IL6R-L (antibody, human IgG1)
heavy: B9 heavy with G239D, A328K, K332R
light: B9 light
notes: as for B9
B20: IL6R-BP212/IL6R-L (antibody, human IgG1)
heavy: B9 heavy with H270D, Y298D, A328K, K332R
light: B9 light
notes: as for B9
B21: IL6R-BP176/IL6R-L (antibody, human IgG1)
heavy: B9 heavy with G273P, A328D
light: B9 light
notes: as for B9
B22: IL6R-BP204/IL6R-L (antibody, human IgG1)
heavy: B9 heavy with K332R
light: B9 light
notes: as for B9
B23: IL6R-BP210/IL6R-L (antibody, human IgG1)
heavy: B9 heavy with D235E, G239D, H270D, A328K, K332R
light: B9 light
notes: as for B9
B24: IL6R-BP193/IL6R-L (antibody, human IgG1)
heavy: B9 heavy with H270D, A328K
light: B9 light
notes: as for B9
B25: IL6R-BP202/IL6R-L (antibody, human IgG1)
heavy: B9 heavy with D235E, G239D, K332R
light: B9 light
notes: as for B9
B26: IL6R-BP146/IL6R-L (antibody, human IgG1)
heavy: B9 heavy with D235E, L236Y, G239D, G273P, K332A
light: B9 light
notes: as for B9
B27: IL6R-BP130/IL6R-L (antibody, human IgG1)
heavy: B9 heavy with G273P, V325M, A328K
light: B9 light
notes: as for B9

Target: T1, human FcγRIa (human, UniProt P12314 16-292, limits assumed)
T1 construct: also called FcgRIa; hFcgRIa
Test: SPR, captured antibody;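 also: antibody captured on a sensor chip, Fcγ receptor flowed over at 25 °C, receptor binding normalized to the captured antibody amount and expressed relative to the reference antibody ×100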
Experimental: (§1) Interaction between each modified antibody and Fcγ receptor prepared in the manner described above was analyzed using the BIACORE™ T100 surface plasmon resonance system (GE Healthcare), BIACORE™ T200 surface plasmon resonance system (GE Healthcare), BIACORE™ A100 surface plasmon resonance system or BIACORE™ 4000 surface plasmon resonance system. HBS-EP+ (GE Healthcare) was used for the running buffer, and measurements were carried out at 25° C. The chips used were chips in which antigen peptides, Protein A (Thermo Scientific), Protein A/G (Thermo Scientific) or Protein L (ACTIGEN® protein (Alltech or BioVision) were immobilized on the Series S Sensor Chip CMS (GE Healthcare) or Series S Sensor Chip CM4 (GE Healthcare) by amine coupling, or chips in which preliminarily biotinylated antigen peptides were allowed to interact and then immobilized on the Series S Sensor Chip SA (certified) (GE Healthcare). The target antibodies were captured on these sensor chips, Fcγ receptor diluted with the running buffer was allowed to interact, followed by measurement of the amount of bound antibody. The amounts bound were compared between antibodies. However, since the amount of Fcγ receptor bound depends on the amount of captured antibody, the values used for comparison were first corrected by dividing the amount of Fcγ receptor bound by the captured amount of each antibody. Through reaction with 10 mM glycine-HCl at pH 1.5, the sensor chips were regenerated by washing off antibody captured on the sensor chips and used repeatedly.
(§2) Binding strength was evaluated according to the following method based on the results of analyzing the interaction with each FcγR. […] That value was then further multiplied by 100, and the resulting value was used as an indicator of relative binding activity to each FcγR.

T1 sequence (P12314 16-292 limits assumed): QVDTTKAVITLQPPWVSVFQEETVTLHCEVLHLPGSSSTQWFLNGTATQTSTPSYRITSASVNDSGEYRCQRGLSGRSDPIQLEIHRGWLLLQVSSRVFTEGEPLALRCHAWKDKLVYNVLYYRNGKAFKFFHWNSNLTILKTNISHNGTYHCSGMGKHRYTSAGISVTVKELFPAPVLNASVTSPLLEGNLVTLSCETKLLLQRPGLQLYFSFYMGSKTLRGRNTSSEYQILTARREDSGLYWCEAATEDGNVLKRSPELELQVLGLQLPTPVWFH

Binder	relative binding activity
B1	91 % of GpH7-B3/GpL16-k0
B2	9 % of GpH7-B3/GpL16-k0
B3	100 % of GpH7-B3/GpL16-k0
B4	45 % of GpH7-B3/GpL16-k0
B5	99 % of GpH7-B3/GpL16-k0
B6	91 % of GpH7-B3/GpL16-k0
B7	100 % of GpH7-B3/GpL16-k0
B8	95 % of GpH7-B3/GpL16-k0

Target: T2, human FcγRIIb (human, UniProt P31994 43-217, limits assumed)
T2 construct: also called FcgRIIb; hFcgRIIb
T2 sequence: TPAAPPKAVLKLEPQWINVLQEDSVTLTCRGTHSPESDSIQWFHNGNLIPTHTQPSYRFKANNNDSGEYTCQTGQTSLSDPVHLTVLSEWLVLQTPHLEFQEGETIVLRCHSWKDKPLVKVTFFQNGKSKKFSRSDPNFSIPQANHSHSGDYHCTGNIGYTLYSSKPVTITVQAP
Test: SPR, captured antibody;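 also: antibody captured on a sensor chip, Fcγ receptor flowed over at 25 °C, receptor binding normalized to the captured antibody amount and expressed relative to the reference antibody ×100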
Experimental: as §1, §2

Binder	relative binding activity
B1	36 % of GpH7-B3/GpL16-k0
B2	-1 % of GpH7-B3/GpL16-k0
B3	58 % of GpH7-B3/GpL16-k0
B4	7 % of GpH7-B3/GpL16-k0
B5	45 % of GpH7-B3/GpL16-k0
B6	25 % of GpH7-B3/GpL16-k0
B7	52 % of GpH7-B3/GpL16-k0
B8	45 % of GpH7-B3/GpL16-k0

Target: T3, human FcγRIIa(R) (human, UniProt P12318 36-217)
T3 construct: also called FcgRIIaR; hFcgRIIa(R)
T3 chain: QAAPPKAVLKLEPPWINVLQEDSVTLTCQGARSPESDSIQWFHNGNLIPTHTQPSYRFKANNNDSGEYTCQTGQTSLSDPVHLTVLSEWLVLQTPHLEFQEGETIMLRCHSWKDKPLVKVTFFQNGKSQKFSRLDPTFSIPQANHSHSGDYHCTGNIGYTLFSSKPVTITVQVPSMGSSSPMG
Test: SPR, captured antibody;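 also: antibody captured on a sensor chip, Fcγ receptor flowed over at 25 °C, receptor binding normalized to the captured antibody amount and expressed relative to the reference antibody ×100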
Experimental: as §1, §2

Binder	relative binding activity
B1	34 % of GpH7-B3/GpL16-k0
B2	-1 % of GpH7-B3/GpL16-k0
B3	77 % of GpH7-B3/GpL16-k0
B4	10 % of GpH7-B3/GpL16-k0
B5	70 % of GpH7-B3/GpL16-k0
B6	38 % of GpH7-B3/GpL16-k0
B7	77 % of GpH7-B3/GpL16-k0
B8	59 % of GpH7-B3/GpL16-k0

Target: T4, human FcγRIIa(H) (human, UniProt P12318 36-217)
T4 construct: also called FcgRIIaH; hFcgRIIa(H)
T4 sequence: T3 chain with R133H
Test: SPR, captured antibody;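 also: antibody captured on a sensor chip, Fcγ receptor flowed over at 25 °C, receptor binding normalized to the captured antibody amount and expressed relative to the reference antibody ×100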
Experimental: as §1, §2

Binder	relative binding activity
B1	14 % of GpH7-B3/GpL16-k0
B2	0 % of GpH7-B3/GpL16-k0
B3	83 % of GpH7-B3/GpL16-k0
B4	8 % of GpH7-B3/GpL16-k0
B5	66 % of GpH7-B3/GpL16-k0
B6	34 % of GpH7-B3/GpL16-k0
B7	74 % of GpH7-B3/GpL16-k0
B8	56 % of GpH7-B3/GpL16-k0

Target: T5, FcγRIIIa type V (human, UniProt P08637 17-208, limits assumed)
T5 construct: also called FcγRIIIaV; FcgRIIIaV
Test: SPR (Biacore), bound amount, IL6R-BF648/IL6R-L = 100
Experimental: (§3) According to the following method, relative binding activities were calculated for the results of analyzing interactions with the respective FcγRs.

T5 sequence (P08637 other isoform, or with tags, fused parts or gaps limits assumed): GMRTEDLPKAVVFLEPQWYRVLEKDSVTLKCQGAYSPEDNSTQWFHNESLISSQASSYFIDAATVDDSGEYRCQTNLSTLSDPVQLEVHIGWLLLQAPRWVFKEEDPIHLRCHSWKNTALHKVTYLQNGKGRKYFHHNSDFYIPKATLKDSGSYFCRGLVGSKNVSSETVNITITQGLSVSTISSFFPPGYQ

Binder	relative binding activity
B9	122 % of control
B10	155 % of control
B11	221 % of control
B12	142 % of control
B13	118 % of control
B14	221 % of control

Target: T6, FcγRIIb (human, UniProt P31994 43-217, limits assumed)
T6 construct: also called FcgRIIb; FcγIIB
T6 sequence: T2 sequence
Test: as above
Experimental: as §3

Binder	relative binding activity
B15	179 % of control
B16	178 % of control
B17	167 % of control
B18	179 % of control
B19	186 % of control
B20	173 % of control
B21	147 % of control
B22	165 % of control
B23	187 % of control
B24	173 % of control
B25	185 % of control
B26	156 % of control

Target: T7, FcγRIa (human, UniProt P12314 16-292, limits assumed)
T7 construct: also called FcgRIa; CD64
Test: as above
Experimental: as §3

T7 sequence (P12314 16-292 limits assumed): as the sequence (P12314 16-292 limits assumed) above

Binder	relative binding activity
B27	104 % of control
B15	51 % of control
B16	34 % of control
B17	97 % of control
B18	74 % of control
B10	50 % of control
B19	57 % of control
B20	117 % of control
B21	102 % of control
B11	66 % of control
B23	57 % of control
B12	125 % of control
B24	113 % of control
B25	43 % of control
B13	33 % of control
B14	39 % of control

Target: T8, FcγRIIa type H (human, UniProt P12318 36-217)
T8 construct: also called FcγRIIaH; FcγRIIH
T8 sequence: T3 chain with R133H
Test: as above
Experimental: as §3

Binder	relative binding activity
B27	224 % of control
B15	259 % of control
B9	150 % of control
B16	548 % of control
B17	108 % of control
B10	224 % of control
B19	359 % of control
B20	135 % of control
B21	128 % of control
B11	344 % of control
B22	137 % of control
B23	279 % of control
B12	145 % of control
B24	154 % of control
B25	285 % of control
B13	253 % of control
B14	621 % of control
B26	203 % of control
